{
  "source": "patent US6683162B2",
  "about": "“Targeted alpha particle therapy using actinium-255 conjugates” (Sloan Kettering Institute of Cancer Research, priority 2000, dated 2004)",
  "key": {"[1]": {"assay": "Toxicity of [225Ac]DOTA-HuM195 i.v. in cynamologous monkeys", "format": "in vivo, cynamologous monkey", "settings": "9 months out", "description": "Two male cynamologous monkeys (3-5 kg) were injected i.v. 9 months ago with an initial 0.002-0.005 mCi dose of [225Ac]DOTA-HuM195 per monkey and then 6 weeks later with a 0.017-0.020 mCi dose of [225Ac]DOTA-HuM195. Animals are followed by serial blood sampling and observation of activity and appearance as a function of time."}, "[2]": {"test_system": "human HL60 leukemia cells", "assay": "In vitro cytotoxicity (LD50), HL60, tritiated thymidine incorporation", "format": "cell-based", "description": "The potency and specificity of 225Ac-HuM195-DOTA was then evaluated in-vitro as a function of specific activity and activity concentration (FIG. 6). A suspension of HL60 cells were washed twice with complete media and then dispensed into a 96 well cell culture plate in complete media supplemented with 2% human serum. The volume was 100 μl and the cells were at a density of 5×10^5 cells/ml. Next a serial dilultion of purified ^225Ac-HuM195-DOTA was added to the wells. The diluent was complete media and volume added was 100 μl. The starting activity was 10 nCi/ml, which was diluted 5-fold for each subsequent tube. […] The cells were incubated for 2 days at 37° C., following which tritiated thymidine was added (0.5 pC, in 50 il complete media/well). The cells were incubated at 37° C. for an additional 5 h, then harvested using a Combi Cell Harvestor (Skatron Instruments). Cell viability was determined by analyzing the degree of tritiated thymidine incorporated into the DNA of the treated cells relative to control cells.\nThe potency and specificity of [225Ac]IgG for killing single cancer cells is determined using 5E4 cells in 0.2 mL per well in 96 well plates. Serial dilutions of [225Ac]IgG are added (triplicate) to the cells to yield final activity in the wells ranging from 74 kBl/mL to 37E-6 kB q/mL. Non-specific killing is measured after target cells are blocked with a 100-10000-fold excess of unlabeled IgG before plating and subsequent addition of [225Ac]IgG."}, "[3]": {"test_system": "LNCaP tumor xenograft", "assay": "Biodistribution of 225Ac/221Fr/213Bi in LNCaP tumor bearing mice", "settings": "for A2(o)/A2(eq) Bi-213 at sacrifice time / A2(o)/A2(eq) Fr-221 at sacrifice time / % ID/g Ac-225 / % ID/g Bi-213 / % ID/g Fr-221: 48 hour, mean; for A2(o)/A2(eq) Bi-213 at sacrifice time / A2(o)/A2(eq) Fr-221 at sacrifice time: daughter/parent ratio", "description": "An [225Ac]DOTA-J591 biodistribution experiment was carried-out using a male athymic nude (8-12 weeks old) mouse (Taconic, Germantown, N.Y.) model with an i.m. xenograft of 5E6 LNCaP tumor cells in Matrigel (Becton Dickinson Labware, Bedford Mass.) implanted in the right hind leg. The tumors were allowed to grow for 4 weeks and then the mice were separated into two groups (n=12 per group). One group received approximately 0.55 mL of [225Ac]DOTA-J591 (350 nCi ^225Ac on 0.0035 mg J591) and the other group received the irrelevant control [225Ac]DOTA-HuM195 (350 nCi 225Ac on 0.0026 mg HuM195) via i.p. injection. Three to four animals from each group were sacrificed at 48 h and 72 h post injection. Blood and tissue samples including: heart, kidneys, lung, spleen, liver, stomach, intestine, and tumor were harvested, weighed and counted using a Packard Cobra Gamma Counter (Packard Instrument Co., Inc., Meriden, Conn.) with two energy windows, ^221Fr (185-250 KeV window) and ^213Bi (360-480 window). The percent of the injected dose per gram of tissue (% ID/g) was determined by measuring the activity in […] aliquots of each respective [^225Ac]mAb injectate in triplicate. After the initial 48 h time point data was analyzed, attention was focused on collection of blood, tumor, heart, kidney and small intestine samples as the need to rapidly sacrifice, harvest, and count was necessary in order to measure ^221Fr in the samples.\nUsing known methods (28), values of A2(o)/A2(eq) were determined for each tissue sample."}, "[4]": {"test_system": "antigen positive cells (HL60)", "assay": "Cell based immunoreactivity assay, antigen positive cells", "format": "binding, human", "settings": "HL60, antigen excess, on ice", "description": "A cell based immunoreactivity assay (binding of labeled antibody to antigen excess) was used to determine the percentage of HuM195 that retained its immunoreactivity after conjugation and purification. The assay was conducted with antigen positive cells (HL60, available from American Tissue Culture Collection [ATCC]) and antigen negative cells (Daudi, ATCC).\nThe cells were centrifuged, the supernatant removed and the cells resuspended to a density of 10^8 cells/ml in 2% w/v bovine serum albumin in phosphate buffered saline, pH 7.2 (PBS). Aliquots of cell suspension ([…]) were transferred to microcentrifuge tubes placed on ice to which purified ^225Ac-HuM195-DOTA (3 ng) was added. The cell suspensions were incubated for 30 min, centrifuged and the supernatant containing any unbound ^225Ac-HuM195-DOTA was transferred to a second microcentrifuge tube of cell suspension. The second tube was incubated on ice for 30 min. The first cell pellets were washed with PBS and the cells and washes saved for γ emission counting. The second set of cell suspensions were centrifuged, the supernatant removed and the pellets were washed with PBS. The set of supernate, cell pellets and washes were saved for counting. The percentage of radioactivity that was associated with the cells was then determined."}},
  "data": [
    {"substance": "225Ac-HuM195-DOTA", "values": [
      {"measurement": "evidence of toxicity", "setting": "[1]; i.v. 0.002-0.005 mCi then 0.017-0.020 mCi 6 weeks later", "value": "no evidence of toxicity"},
      {"measurement": "hepatic, renal and hematopoietic function", "setting": "[1]; i.v.", "value": "did not change"},
      {"measurement": "LD50", "setting": "[2]; HL60 (non-specific), excess unlabeled antibody, S.A. 0.089 GBq/g", "value": 185.0, "unit": "Bq/mL"},
      {"measurement": "LD50", "setting": "[2]; HL60 (specific), S.A. 8.9 GBq/g", "value": 0.3, "unit": "Bq/mL"},
      {"measurement": "LD50", "setting": "[2]; HL60, Ac-225 construct, S.A. 0.24 Ci/g", "value": 8, "unit": "pCi/mL"},
      {"measurement": "LD50", "setting": "[2]; HL60, specific activity 0.094 nCi/ng, 2 days at 37° C. then tritiated thymidine 5 h", "value": "about 1.3 nCi/ml"},
      {"measurement": "225Ac uptake in the liver", "setting": "[3]; 48 h, LNCaP tumor bearing mice, i.p.", "value": "less than 8%"},
      {"measurement": "A2(o)/A2(eq) Bi-213 at sacrifice time", "setting": "[3]; Blood", "value": 0.04},
      {"measurement": "A2(o)/A2(eq) Fr-221 at sacrifice time", "setting": "[3]; Blood", "value": 0.13},
      {"measurement": "% ID/g Ac-225", "setting": "[3]; Blood", "value": 13.5, "unit": "% ID/g"},
      {"measurement": "% ID/g Bi-213", "setting": "[3]; Blood", "value": 0.55, "unit": "% ID/g"},
      {"measurement": "% ID/g Fr-221", "setting": "[3]; Blood", "value": 0.18, "unit": "% ID/g"},
      {"measurement": "A2(o)/A2(eq) Bi-213 at sacrifice time", "setting": "[3]; Heart", "value": 0.99},
      {"measurement": "A2(o)/A2(eq) Fr-221 at sacrifice time", "setting": "[3]; Heart", "value": 1.6},
      {"measurement": "% ID/g Ac-225", "setting": "[3]; Heart", "value": 3.9, "unit": "% ID/g"},
      {"measurement": "% ID/g Bi-213", "setting": "[3]; Heart", "value": 3.9, "unit": "% ID/g"},
      {"measurement": "% ID/g Fr-221", "setting": "[3]; Heart", "value": 6.1, "unit": "% ID/g"},
      {"measurement": "A2(o)/A2(eq) Bi-213 at sacrifice time", "setting": "[3]; Kidneys", "value": 10.0},
      {"measurement": "A2(o)/A2(eq) Fr-221 at sacrifice time", "setting": "[3]; Kidneys", "value": 16.8},
      {"measurement": "% ID/g Ac-225", "setting": "[3]; Kidneys", "value": 4.7, "unit": "% ID/g"},
      {"measurement": "% ID/g Bi-213", "setting": "[3]; Kidneys", "value": 46.5, "unit": "% ID/g"},
      {"measurement": "% ID/g Fr-221", "setting": "[3]; Kidneys", "value": 72.8, "unit": "% ID/g"},
      {"measurement": "A2(o)/A2(eq) Bi-213 at sacrifice time", "setting": "[3]; Liver", "value": 0.87},
      {"measurement": "A2(o)/A2(eq) Fr-221 at sacrifice time", "setting": "[3]; Liver", "value": 0.70},
      {"measurement": "% ID/g Ac-225", "setting": "[3]; Liver", "value": 7.7, "unit": "% ID/g"},
      {"measurement": "% ID/g Bi-213", "setting": "[3]; Liver", "value": 6.5, "unit": "% ID/g"},
      {"measurement": "% ID/g Fr-221", "setting": "[3]; Liver", "value": 5.5, "unit": "% ID/g"},
      {"measurement": "A2(o)/A2(eq) Bi-213 at sacrifice time", "setting": "[3]; Sm. Int.", "value": 4.0},
      {"measurement": "A2(o)/A2(eq) Fr-221 at sacrifice time", "setting": "[3]; Sm. Int.", "value": 13.3},
      {"measurement": "% ID/g Ac-225", "setting": "[3]; Sm. Int.", "value": 1.6, "unit": "% ID/g"},
      {"measurement": "% ID/g Bi-213", "setting": "[3]; Sm. Int.", "value": 6.3, "unit": "% ID/g"},
      {"measurement": "% ID/g Fr-221", "setting": "[3]; Sm. Int.", "value": 18.7, "unit": "% ID/g"},
      {"measurement": "A2(o)/A2(eq) Bi-213 at sacrifice time", "setting": "[3]; Tumor", "value": 0.87},
      {"measurement": "A2(o)/A2(eq) Fr-221 at sacrifice time", "setting": "[3]; Tumor", "value": 0.83},
      {"measurement": "% ID/g Ac-225", "setting": "[3]; Tumor", "value": 1.60, "unit": "% ID/g"},
      {"measurement": "% ID/g Bi-213", "setting": "[3]; Tumor", "value": 5.0, "unit": "% ID/g"},
      {"measurement": "% ID/g Fr-221", "setting": "[3]; Tumor", "value": 4.6, "unit": "% ID/g"},
      {"measurement": "activity associated with the cells (immunoreactivity)", "setting": "[4]", "value": 74, "unit": "%"}
    ]}
  ]
}
